From patent publication US5871901 come the findings set out here.

In series [1] the target is DP-1/E2F-1 heterodimer (murine).
The test system of series [2] is DP-1/E2F-1 + orf 6/7 (in SL2 cells) (Mus musculus? / Homo sapiens? / adenovirus type 5). The series can be described thus: cell_activity. The settings on record: enhancement by orf 6/7 over DP-1/E2F-1.

With “Ad5 orf 6/7 protein expressed from pE4 (complete Ad5 orf 6/7 cDNA)”, the transcriptional activity of the adenovirus E2a promoter (pE2a CAT reporter, SL2 cells) in series [1] worked out at 2 fold.

Take “E2a promoter (-96 to +68), two E2F sites”: in series [2], the activity stood at 2 fold.
